# Source: patent US7919091B2, “Lipolysis stimulated receptor (LSR) specific antibodies” (Serono Genetics Institute S.A., priority 1997, dated 2011)
# B1: leptin: mouse recombinant leptin with hexahistidine end, expressed in E. coli (protein, UniProt P41160 22-167, looked up)
# Leptin: VPIQKVQDDTKTLIKTIVTRINDISHTQSVSAKQRVTGLDFIPGLHPILSLSKMDQTLAVYQQVLTSLPSQNVLQIANDLENLRDLLHLLAFSKSCSLPQTSGLQKPESLDGVLEASLYSTEVVALSRLQGSLQDILQQLDVSPEC
# modifications: hexahistidine tag
# notes: mouse recombinant leptin with hexahistidine end, expressed in E. coli
# Experiments:
# LSR receptors = test system: LSR receptors; parameters: species or system mice; conditions: mouse
# Procedure: The apparent number of LSR receptors on plasma membranes is measured as previously described (Mann et al., 1995) by estimating the quantity of LDL bound to a plasma membrane preparation. The plasma membranes (100 μg) are incubated with 1 mM oleate; they are then washed three times as indicated above, and then incubated for 1 hour at 37° C. with 40 μg/ml of ^125I-LDL. The quantity of ^125I-LDL bound to the plasma membranes is then determined by counting. The mean is established on 3 measurements per animal for 3 different animals in each of the groups.
# LSR = molecular target: T1, LSR (Homo sapiens, UniProt Q86X29); experiment: Effect of leptin on the LSR activity of human fibroblasts HF; assay type: cell-based; conditions: incubation with increasing leptin, 50 μg/ml 125I-LDL, 500 μM oleate
# T1 construct: GM00486A, GM007001B, GM00488C; host or cells: human skin fibroblasts, normal or HF (familial hypercholesterolemia, LDL-receptor deficient)
# T1 sequence (Q86X29 1-649) 1: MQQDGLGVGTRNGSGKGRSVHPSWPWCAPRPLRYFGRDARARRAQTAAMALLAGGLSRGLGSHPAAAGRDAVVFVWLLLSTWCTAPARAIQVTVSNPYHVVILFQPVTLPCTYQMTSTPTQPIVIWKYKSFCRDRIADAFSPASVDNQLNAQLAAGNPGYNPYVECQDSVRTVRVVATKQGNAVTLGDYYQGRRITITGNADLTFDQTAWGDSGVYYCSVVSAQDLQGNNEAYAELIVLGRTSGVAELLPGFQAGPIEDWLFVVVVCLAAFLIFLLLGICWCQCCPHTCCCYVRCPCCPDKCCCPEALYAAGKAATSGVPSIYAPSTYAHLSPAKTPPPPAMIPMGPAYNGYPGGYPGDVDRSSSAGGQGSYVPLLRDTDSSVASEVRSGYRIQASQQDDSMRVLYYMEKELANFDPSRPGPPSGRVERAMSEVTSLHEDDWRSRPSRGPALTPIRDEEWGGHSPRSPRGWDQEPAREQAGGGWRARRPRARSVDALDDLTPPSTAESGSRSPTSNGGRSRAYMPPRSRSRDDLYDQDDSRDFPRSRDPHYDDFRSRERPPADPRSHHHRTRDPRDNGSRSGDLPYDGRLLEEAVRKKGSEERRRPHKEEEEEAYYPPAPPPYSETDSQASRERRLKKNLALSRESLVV
# T1 sequence (Q86X29 1-649) 2: T1 sequence (Q86X29 1-649) 1
# Procedure: The fibroblasts HF are incubated for 30 minutes at 37° C. with increasing concentrations of leptin, and then for 2 hours at 37° C. with 50 μg/ml of ^125I-LDL, in the presence of 500 μM oleate. The binding, internalization and degradation of the LDLs are measured as indicated in Example 1.
molecule,measurement,setting,value
B1,apparent number of LSR receptors expressed at the surface of the hepatocytes in vivo,LSR receptors,increase
same,LSR activity of human fibroblasts HF,LSR,increased
